± gives the uncertainty stated by the source.
Test: self-splicing fitness, log relative to wild type (ln ratio); higher = more splicing; Tetrahymena group I intron in knt gene, E. coli kanamycin selection, DiMSum; sequences stand for … in CUCUCU…GGAGGGAAAAGUUAUCAGGCAUGCACCUGGUAGCUAGUCUUUAAACCAAUAGAUUGCAUCGGUUUAAAAGGCAAGACCGUCAAAUUGCGGGAAAGGGGUCAACAGCCGUUCAGUACCAAGUCUCAGGGGAAACUUUGAGAUGGCCUUGCAAAGGGUAUGGUAAUAAGCUGACGGACAUGGUCCUAACCACGCAGCCAAGUCCUAAGUCAACAGAUCUUCUGUUGAUAUGGAUGCAGUUCACAGACUAAAUGUCGGUCGGGGAAGAUGUAUUCUUCUCAUAAGAUAUAGUCGGACCUCUCCUUAAUGGGAGCUAGCGGAUGAAGUGAUGCAACACUGGAGCCGCUGGGAACUAAUUUGUAUGCGAAAGUAUAUUGAUUAGUUUUGGAGUACUCGUGGUCG
Method in brief: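 Library with all eight P1ex-region intron nucleotides randomised, intron inside the knt kanamycin-resistance gene on pET-22b(+), in E. coli BL21(DE3). Cells grew overnight at 37°C or 30°C on LB agar with or without 25 μg/mL kanamycin (plus 100 μg/mL carbenicillin, 50 μM IPTG, 0.2% rhamnose), in six replicate transformations. Pooled colonies were amplicon-sequenced on Illumina HiSeq 2500. DiMSum fitness is the error-weighted combination of wild-type-normalised replicate fold changes, kanamycin versus none.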

Sequence | self-splicing fitness (ln) (30 °C) | self-splicing fitness (ln) (37 °C)
AUUUAGCAAUAUUACGUUAC | -2.76 ± 0.33 | -2 ± 0.27
CCUCAGCAAUAUUACGCACU | -3.26 ± 0.18 | -1.63 ± 0.2
CUAGAGCAAUAUUACGGUAG | -0.666 ± 0.12 | -0.0273 ± 0.15
AUUGAGCAAUAUUACGUCCU | -2.41 ± 0.19 | -0.811 ± 0.15
ACCUAGCAAUAUUACGGAAU | -1.96 ± 0.08 | -1.19 ± 0.09
AUAUAGCAAUAUUACGUACU | -0.531 ± 0.16 | -0.188 ± 0.19
AACCAGCAAUAUUACGCUCU | -0.0812 ± 0.054 | 0.0106 ± 0.07
UUUGAGCAAUAUUACGUGUA | -3.76 ± 0.35 | -2.78 ± 0.28
ACGCAGCAAUAUUACGUAGA | -2.99 ± 0.16 | -2.53 ± 0.21
GUGAAGCAAUAUUACGGGGA | -2.85 ± 0.22 | -2.64 ± 0.29
UAAAAGCAAUAUUACGCUGC | -2.51 ± 0.18 | -1.35 ± 0.26
UGUAAGCAAUAUUACGCGAU | -3.35 ± 0.29 | -1.25 ± 0.21
CCGAAGCAAUAUUACGACAA | -3.59 ± 0.4 | -2.52 ± 0.29
UGCUAGCAAUAUUACGGGUU | -2.39 ± 0.14 | -1.33 ± 0.14
UAUGAGCAAUAUUACGUCCC | -2.74 ± 0.49 | –
CUGGAGCAAUAUUACGCCUU | – | -1.6 ± 0.43
ACCUAGCAAUAUUACGGCCA | -1.33 ± 0.13 | -0.234 ± 0.12
UUAGAGCAAUAUUACGUCGU | -3.46 ± 0.4 | -1.26 ± 0.21
UGCAAGCAAUAUUACGUGUG | -2.69 ± 0.098 | -2.81 ± 0.14
UUAAAGCAAUAUUACGGCAA | 0.101 ± 0.12 | 0.186 ± 0.16
GAGCAGCAAUAUUACGAGUG | -2.8 ± 0.17 | -1.09 ± 0.19
CCCAAGCAAUAUUACGGUAG | -2.45 ± 0.086 | -1.77 ± 0.087
CGAGAGCAAUAUUACGUCUA | -3.15 ± 0.36 | –
UAGUAGCAAUAUUACGUUGA | -2.34 ± 0.13 | -1.54 ± 0.12
AGUAAGCAAUAUUACGACCA | -0.203 ± 0.12 | 0.184 ± 0.21
CUCAAGCAAUAUUACGCUCU | -4.12 ± 0.25 | -2.39 ± 0.21

Sequence | self-splicing fitness (ln) (30 °C) | self-splicing fitness (ln) (37 °C)
UCCGAGCAAUAUUACGCUUA | -2.39 ± 0.41 | -2.47 ± 0.39
CCCAAGCAAUAUUACGCCCC | – | -2.52 ± 0.48
AGUGAGCAAUAUUACGCUCC | -1.69 ± 0.45 | –
UCUAAGCAAUAUUACGAGGG | -3.29 ± 0.47 | -2.61 ± 0.27
GGACAGCAAUAUUACGGCGU | -0.74 ± 0.097 | -0.627 ± 0.11
GAAAAGCAAUAUUACGGCAC | -0.696 ± 0.058 | -0.217 ± 0.093
GAUAAGCAAUAUUACGGCCU | -0.624 ± 0.08 | -0.592 ± 0.11
CGAAAGCAAUAUUACGUUAU | -3.68 ± 0.31 | -3.5 ± 0.29
ACGAAGCAAUAUUACGCAAU | -1.6 ± 0.091 | -1.42 ± 0.094
GAAUAGCAAUAUUACGUAAU | -2.99 ± 0.13 | -0.789 ± 0.11
ACAGAGCAAUAUUACGAUGU | -3.39 ± 0.16 | -2.38 ± 0.18
ACGCAGCAAUAUUACGAUUU | -1.01 ± 0.081 | -0.413 ± 0.1
CUGGAGCAAUAUUACGUGCA | -3.46 ± 0.41 | –
ACGUAGCAAUAUUACGGUAA | -1.67 ± 0.2 | -1.39 ± 0.14
CACCAGCAAUAUUACGGCAC | -2.38 ± 0.12 | -1.09 ± 0.11
ACGAAGCAAUAUUACGUCCG | -0.464 ± 0.097 | -0.122 ± 0.12
UCCGAGCAAUAUUACGUCGU | -2.21 ± 0.16 | -1.53 ± 0.18
GUCAAGCAAUAUUACGCAUU | -1.21 ± 0.089 | -1.02 ± 0.13
GCAAAGCAAUAUUACGCUGC | -3.72 ± 0.42 | –
AACUAGCAAUAUUACGACUA | -0.192 ± 0.2 | -1.24 ± 0.15
UGUAAGCAAUAUUACGGUGA | -2.08 ± 0.11 | -0.909 ± 0.13
UAUAAGCAAUAUUACGUGUG | -0.923 ± 0.073 | -0.446 ± 0.088
AUACAGCAAUAUUACGCUAC | -2.36 ± 0.35 | –
AAACAGCAAUAUUACGUGCU | -3.52 ± 0.2 | -1.91 ± 0.14
AGGUAGCAAUAUUACGUAUC | -3.25 ± 0.025 | -2.07 ± 0.038
GCUUAGCAAUAUUACGGUCA | -1.04 ± 0.13 | -0.448 ± 0.14

Sequence | self-splicing fitness (ln) (30 °C) | self-splicing fitness (ln) (37 °C)
UUAUAGCAAUAUUACGACUC | -1.94 ± 0.19 | -1.94 ± 0.24
GGCUAGCAAUAUUACGAUAG | – | -2.41 ± 0.39
GUCUAGCAAUAUUACGGAAA | -0.658 ± 0.12 | -0.44 ± 0.12
GAAGAGCAAUAUUACGUUGA | -3.21 ± 0.19 | -2.63 ± 0.2
GAACAGCAAUAUUACGGGGC | -3.05 ± 0.15 | -3.3 ± 0.21
AAAGAGCAAUAUUACGGAAG | -3.76 ± 0.21 | -2.62 ± 0.33
UACCAGCAAUAUUACGUAAC | -2.64 ± 0.13 | -2.18 ± 0.2
CGGUAGCAAUAUUACGUGGA | -4.03 ± 0.27 | -2.26 ± 0.17
CUUCAGCAAUAUUACGCGAG | -3.15 ± 0.2 | -1.91 ± 0.2
CCACAGCAAUAUUACGGGAG | -2.29 ± 0.14 | -2.97 ± 0.19
CCGAAGCAAUAUUACGGGCG | -0.886 ± 0.066 | -0.235 ± 0.074
CGGCAGCAAUAUUACGUAUA | -3.35 ± 0.27 | -2.8 ± 0.23
CGAAAGCAAUAUUACGAUGC | -2.67 ± 0.39 | -1.35 ± 0.27
CUUAAGCAAUAUUACGCAUG | -2.35 ± 0.12 | -1.5 ± 0.13
CGCCAGCAAUAUUACGGUCG | -4.17 ± 0.19 | -2.5 ± 0.2
CUACAGCAAUAUUACGGAAA | -4.58 ± 0.46 | -2.9 ± 0.33
GCGUAGCAAUAUUACGCAGG | -3.66 ± 0.47 | -3.54 ± 0.33
GGGUAGCAAUAUUACGUUCC | – | -2.09 ± 0.46
AUUCAGCAAUAUUACGUCGU | -0.283 ± 0.071 | 0.553 ± 0.085
CCUAAGCAAUAUUACGGCUA | -3.69 ± 0.47 | -3.14 ± 0.25
AGCUAGCAAUAUUACGUCUA | -1.49 ± 0.11 | -0.745 ± 0.13
CCGUAGCAAUAUUACGCCGA | -2.64 ± 0.22 | -1.99 ± 0.19
CGUCAGCAAUAUUACGUUAA | -3.28 ± 0.17 | -2.38 ± 0.14
GUUGAGCAAUAUUACGCAAG | -2.77 ± 0.21 | -1.79 ± 0.26
AACGAGCAAUAUUACGAAAG | -2.83 ± 0.48 | -1.43 ± 0.32
AAGAAGCAAUAUUACGCGAA | -2.18 ± 0.1 | -0.344 ± 0.093
